# Experimental data published in the nanobody polyreactivity screen of Harvey et al. (2022).
# Test: yeast display, Sf9 membrane polyspecificity reagent, FACS + sequencing; frameworks hold sequencing errors
# How it was run: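 Genes from sorted yeast were amplified by colony PCR, read by MiSeq 2 × 250 sequencing and filtered on CDR length. These cells carried a synthetic nanobody library in Saccharomyces cerevisiae BJ5465 and were sorted by FACS into low and high (top ~1%) gates on anti-HA and streptavidin fluorescence. Polyreactivity is labelled according to the gate of origin.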
row,Sequence,polyreactivity (PSR sort gate)
1,QVQLVESGGGLVQAGGSLRLSCAASGFTFRNYAMGWYRQAPGKERELVAAISKRGGNTYYADSVKGRFTISRDNAKNTVYLQMNSLKPEDTAVYYCARKYFRTSNLYGYWGQGTQVTVSS,high polyreactivity
2,QVQLVESGGGLVQAGGSLRLSCAASGFTFRNYAMGWYRQAPGKERELVAAISKSGGSTYYADSVKGRFTISRDNAKNTVYFQMNSLKPEDSAVYYCATVYLYVYGFEYYYWGQGTQVTLSS,high polyreactivity
3,QVQLVESGGGLVQAGGSLRLSCAASGFTFRRNAMGWYLQAPGKERELVARISSGGSTNYADSVKGRFTISRDNAKNTVYLQMNSLKPEDSAVYYCATGKGPYPYRQRYGYWGQGTKVTVSS,high polyreactivity
4,QVQLVESGGGLVQAGGSLRLSCAASGFTFRRNAMGWYRQAPGKERELVAAISSGGGTYYADSVKGRFTISRDNAKNTLYLQMNSLKPEETAVYYCNAAGQVRKYGYWGQGTEVTVSS,high polyreactivity
5,QVQLVESGGGLVQAGGSLRLSCAASGFTFRRNAMRWYRQAPGKEWELVAAINFRDGSTYYADSLKGRFTISRDNAMIHVYLQMHSLKPEDSAVYYRAAVYYVRDRYDYWGQGTQETVSS,high polyreactivity
6,QVQLVESGGGLVQAGGSLRLSCAASGFTFRRYAMGWYRQAPGKERELVAAISYGGGRTYYAESVKGRFTISRDNAKNTVYLQMNSLKPEDTAVYYCAADVLSRYVGEADYWGQGTQVTVSS,high polyreactivity
7,QVQLVESGGGLVQAGGSLRLSCAASGFTFRRYAMGWYRQAPGKERELVAAITRTGAGTYYADSVKGRFTISRDNAKNTVYLQMNSLKPEDTAVYYCAAAFYYASAMDYWGQGTQVTVSS,high polyreactivity
8,QVQLVESGGGLVQAGGSLRLSCAASGFTFRRYAMGWYRQAPGKERELVARISFNGGSTFYADSVKGRFTISRDNAKNTVYLQMNSLKPEDTAVYYCAAVFGGRSLSRTYGYDYWGQGTQVTVSS,high polyreactivity
9,QVQLVESGGGLVQAGGSLRLSCAASGFTFRRYAMGWYRQAPWKESELVAAITRDGITNYAASVKGRFTLSRDNAKNTVYFQMNILKPEDTAVYYCARRTGRARLDYWGQGTQVSVSS,high polyreactivity
10,QVQLVESGGGLVQAGGSLRLSCAASGFTFRRYDMGWYRQAPGKERELVATLNRGGSTDYADSVKGRFTISRDNAKNTVYFQLNSLKPEETAVYYCATRYYSSRNWSEYYYWGQGTQVTVSS,high polyreactivity
11,QVQLVESGGGLVQAGGSLRLSCAASGFTFRSYAMGWYRQAPGKERELVAAISSGGSTYYADSVKGRFTISRDNAKNTVYLQMNSLKPEDTAVYYCAARRYYGYGHWGQGTQVNVSS,high polyreactivity
12,QVQLVESGGGLVQAGGSLRLSCAASGFTFRSYAMGWYRQAPGKERELVADISIRGGGTYYADTVKGRFTISRDNAKNTVYLQMNSLKPEDTAVYYCAAERYKPFLWPRYDYWGQGTQVTVSS,low polyreactivity
13,QVQLVESGGGLVQAGGSLRLSCAASGFTFRSYAMGWYRQAPGKERELVASISPGATTKYADSVKGRFTISRDNAKNTVYLQMNSLKPEDTAVYYYEVYQILVRRLSYWGQGTQVTVSC,high polyreactivity
14,QVQLVESGGGLVQAGGSLRLSCAASGFTFRTYAMGWYRQAPGKERELVAAINTGGGTNYADSVKGRFTISRDNAKNTVYLQMNSLKPEDTAVYFCNAVHYYYYYWYSLYDSWGKGTQVTVSS,high polyreactivity
15,QVQLVESGGGLVQAGGSLRLSCAASGFTFRTYAMGWYRQAPGKERELVADISGSGGSTYYADSVKGRFTISRDNAKNTVYLQMISLKPEDTAVYYCAATIYNWGYEREYWGQGTQVTVSS,high polyreactivity
16,QVQLVESGGGLVQAGGSLRLSCAASGFTFRWYAMGWYRQAPGKERELVAAISTTGGSTYYADSVKGRFTISRDNAKNTVYFQLNSLKPEDTAVYYCNVYSGRYWESHKFDSWGQGTQVTVSS,high polyreactivity
